This assay deals with recombinant CypA (UniProt P62937). Put plainly: cell-based or functional assay.
recombinant CypA, sequence (P62937 whole entry): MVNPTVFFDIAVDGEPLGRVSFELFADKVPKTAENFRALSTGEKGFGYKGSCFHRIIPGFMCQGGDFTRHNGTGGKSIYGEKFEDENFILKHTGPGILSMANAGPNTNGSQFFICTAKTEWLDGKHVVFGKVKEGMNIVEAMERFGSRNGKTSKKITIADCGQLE

Cyclosporine A, 1 (peptide): the CypA PPIase IC50 came to 9.7 nM. Regarding DEBIO-025, 2 (peptide), the CypA PPIase IC50 is 0.8 nM.

Source of the values: US20120251581A1.
